Data published in PMC4484057, “Daple is a novel non-receptor GEF required for trimeric G protein activation in Wnt signaling” (eLife, 2015).
Values belong to the binder of their own block, whether it stands above or below them.

B2: His-Gαi3 (natural protein, rat, UniProt P08753 1-354, looked up)
chain: MGCTLSAEDKAAVERSKMIDRNLREDGEKAAKEVKLLLLGAGESGKSTIVKQMKIIHEDGYSEDECKQYKVVVYSNTIQSIIAIIRAMGRLKIDFGEAARADDARQLFVLAGSAEEGVMTSELAGVIKRLWRDGGVQACFSRSREYQLNDSASYYLNDLDRISQTNYIPTQQDVLRTRVKTTGIVETHFTFKELYFKMFDVGGQRSERKKWIHCFEGVTAIIFCVALSDYDLVLAEDEEMNRMHESMKLFDSICNNKWFTDTSIILFLNKKDLFEEKIKRSPLTICYPEYTGSNTYEEAAAYIQCQFEDLNRRKDTKEVYTHFTCATDTKNVQFVFDAVTDVIIKNNLKECGLY
notes: also called His-Gαi3-GDP; recombinant His-Gαi3; source: E. coli BL21 (DE3), purified (HisPur Cobalt Resin)
B3: His-Daple-CT (aa 1650–2028) (domain or fragment, human, UniProt Q9P219-1 1650-2028, looked up)
chain: GTAPPYVGVRPCSASPSSEMVTLEEFLEESNRSSPTHDTPSCRDDLLSDYFRKASDPPAIGGQPGPPAKKEGAKMPTNFVAPTVKMAAPTSEGRPLKPGQYVKPNFRLTEAEAPPSVAPRQAQPPQSLSLGRPRQAPVPPASHAPASRSASLSRAFSLASADLLRASGPEACKQESPQKLGAPEALGGRETGSHTLQSPAPPSSHSLARERTPLVGKAGSSCQGPGPRSRPLDTRRFSLAPPKEERLAPLHQSATAPAIATAGAGAAAAGSGSNSQLLHFSPAAAPAARTKPKAPPRSGEVATITPVRAGLSLSEGDGVPGQGCSEGLPAKSPGRSPDLAPHLGRALEDCSRGSVSKSSPASPEPGGDPQTVWYEYGCV
notes: Cloned from myc-Daple pcDNA 3.1 into pET28b between NdeI/EcoRI; also called His-Daple-CT WT; Daple-CT-WT; source: E. coli BL21 (DE3), purified (HisPur Cobalt Resin)

How the values were obtained:
His-Gαi3 [1] = biological target: B2; assay: pull-down; GST-Daple-CT or GST-GIV-CT immobilised on glutathione-agarose beads; 0.01–3 µM purified His-Gαi3 (GDP-loaded); band intensities of immunoblots fitted to a single-site binding hyperbola; four independent experiments; settings: both partners purified
GST-Daple-CT = biological target: T1, GST-Daple-CT (human, UniProt Q9P219-1 1650-2028); assay: as above; settings: both partners purified
T1 construct: Daple (CCDC88C), human, C-terminal region; pGEX-4T construct; also called GST-Daple-CT WT; source: E. coli BL21 (DE3), purified (glutathione-Sepharose 4B)
T1 sequence (looked up): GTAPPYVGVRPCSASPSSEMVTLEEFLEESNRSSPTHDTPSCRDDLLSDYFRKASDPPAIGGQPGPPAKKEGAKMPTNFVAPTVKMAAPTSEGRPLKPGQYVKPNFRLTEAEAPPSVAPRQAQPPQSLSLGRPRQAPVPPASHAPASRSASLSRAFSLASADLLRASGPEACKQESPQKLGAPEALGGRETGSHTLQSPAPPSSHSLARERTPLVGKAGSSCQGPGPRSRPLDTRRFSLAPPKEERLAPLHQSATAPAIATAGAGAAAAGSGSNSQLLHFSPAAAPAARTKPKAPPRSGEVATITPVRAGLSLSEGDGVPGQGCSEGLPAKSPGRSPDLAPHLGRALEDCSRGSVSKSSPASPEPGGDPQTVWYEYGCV

His-Gαi3 [2] = biological target: B2; assay: cell-based or functional assay
GST-Gαi3 = biological target: T2, GST-Gαi3 (rat, UniProt P08753 1-354); assay: pull-down; Gβγ displacement: GST-Gαi3·Gβγ preformed on glutathione-agarose beads (∼0.4 µM GST-Gαi3), 0.05–1 µM His-Daple-CT, 5 hr at 4°C, GDP; bound Gβγ by immunoblot fitted to a single-site competition curve; settings: both partners purified
T2 construct: Gαi3, rat, in pGEX-4T-1; Loaded with GDP, GDP + AlF4- or GTPγS as the assay says; also called GST-Gαi3 WT; source: E. coli BL21 (DE3), purified (glutathione-Sepharose 4B)

[3] = biological target: B3; assay: pull-down; GST-Gα protein (5 µg) preloaded with GDP (inactive) on glutathione beads; purified His-Daple-CT (3 µg); 4 hr at 4°C; 50 mM Tris-HCl pH 7.4, 100 mM NaCl, 0.4% NP-40, 10 mM MgCl2, 5 mM EDTA, 30 µM GDP, 2 mM DTT; immunoblot; settings: both partners purified

Kd (His-Gαi3 [1]): 240 nM
B1: GST-GIV-CT (aa 1671–1755) (domain or fragment, UniProt Q3V6T2 1671-1755, looked up)
chain: IKTGSPGSEVVTLQQFLEESNKLTSVQIKSSSQENLLDEVMKSLSVSSDFLGKDKPVSCGLARSVSGKTPGDFYDRRTTKPEFLR
notes: GIV (CCDC88A, Girdin), aa 1671–1755, holds the GBA motif; also called GST-GIV CT 1671–1755 aa; source: E. coli BL21 (DE3), purified (glutathione-Sepharose 4B)

Binder: B2
Kd (GST-Daple-CT): 110 nM

Binder: B3
steady-state GTPase activity of His-Gαi3 with 2 µM His-Daple-CT, over the basal activity (His-Gαi3 [2]): ~3 fold
IC50 (GST-Gαi3): 160 nM

binding result [3]: binds
B4: GST-Gαi2 (natural protein, rat, UniProt P04897 1-355, looked up)
chain: MGCTVSAEDKAAAERSKMIDKNLREDGEKAAREVKLLLLGAGESGKSTIVKQMKIIHEDGYSEEECRQYRAVVYSNTIQSIMAIVKAMGNLQIDFADPQRADDARQLFALSCAAEEQGMLPEDLSGVIRRLWADHGVQACFGRSREYQLNDSAAYYLNDLERIAQSDYIPTQQDVLRTRVKTTGIVETHFTFKDLHFKMFDVGGQRSERKKWIHCFEGVTAIIFCVALSAYDLVLAEDEEMNRMHESMKLFDSICNNKWFTDTSIILFLNKKDLFEEKITQSPLTICFPEYTGANKYDEAASYIQSKFEDLNKRKDTKEIYTHFTCATDTKNVQFVFDAVTDVIIKNNLKDCGLF
notes: Gαi2, rat, in pGEX-4T-1; also called GST-fused Gαi2; source: E. coli BL21 (DE3), purified (glutathione-Sepharose 4B)

binding result [3]: binds
B5: GST-Gαi3 K248M (natural protein, rat, UniProt P08753 1-354, looked up)
chain: MGCTLSAEDKAAVERSKMIDRNLREDGEKAAKEVKLLLLGAGESGKSTIVKQMKIIHEDGYSEDECKQYKVVVYSNTIQSIIAIIRAMGRLKIDFGEAARADDARQLFVLAGSAEEGVMTSELAGVIKRLWRDGGVQACFSRSREYQLNDSASYYLNDLDRISQTNYIPTQQDVLRTRVKTTGIVETHFTFKELYFKMFDVGGQRSERKKWIHCFEGVTAIIFCVALSDYDLVLAEDEEMNRMHESMMLFDSICNNKWFTDTSIILFLNKKDLFEEKIKRSPLTICYPEYTGSNTYEEAAAYIQCQFEDLNRRKDTKEVYTHFTCATDTKNVQFVFDAVTDVIIKNNLKECGLY
notes: Gαi3, rat, K248M; source: E. coli BL21 (DE3), purified (glutathione-Sepharose 4B)

binding result [3]: binds
B6: GST-Gαi3 W258F (natural protein, rat, UniProt P08753 1-354, looked up)
chain: MGCTLSAEDKAAVERSKMIDRNLREDGEKAAKEVKLLLLGAGESGKSTIVKQMKIIHEDGYSEDECKQYKVVVYSNTIQSIIAIIRAMGRLKIDFGEAARADDARQLFVLAGSAEEGVMTSELAGVIKRLWRDGGVQACFSRSREYQLNDSASYYLNDLDRISQTNYIPTQQDVLRTRVKTTGIVETHFTFKELYFKMFDVGGQRSERKKWIHCFEGVTAIIFCVALSDYDLVLAEDEEMNRMHESMKLFDSICNNKFFTDTSIILFLNKKDLFEEKIKRSPLTICYPEYTGSNTYEEAAAYIQCQFEDLNRRKDTKEVYTHFTCATDTKNVQFVFDAVTDVIIKNNLKECGLY
notes: Gαi3, rat, W258F; source: E. coli BL21 (DE3), purified (glutathione-Sepharose 4B)
